From US20230026627A1, “Compositions and Methods of Manufacturing Star Polymers for Ligand Display and/or Drug Delivery” (Vaccitech North America, Inc., priority 2019, published 2023)

Columns and labels:
[1] = Turbidity (OD at 490 nm) / aggregation in aqueous buffer (PBS); format: physicochemical; details: turbidity (OD at 490 nm) >0.05 indicates aggregating
Excerpt: Soluble: Capable of becoming molecularly or ionically dispersed in a solvent to form a homogeneous solution. […] Solubility can be determined by visual inspection, by turbidity measurements or by dynamic light scattering.
It was unknown a priori what composition and magnitude of charge would be needed to fully solubilize polymer arms with high densities of amphiphilic or hydrophobic drug (D) molecules. Therefore, we attached high densities (˜10 mol %) of the small molecule aromatic heterocycle, 2BXy, which is a TLR-7/8a, to ˜40 kDa HPMA-based polymer arms (A) through a reactive monomer (E), wherein the polymer arm (A) comprised HPMA monomers as the majority hydrophilic monomer (B) and optionally included either 10 or 20 mol % charged monomers (C) comprising either negatively or positively charged functional groups.

[2] = Hydrodynamic radius (Rh), dynamic light scattering; format: physicochemical; details: Table 5

For “PAMAM-g-poly[(HPMA-co-Ma-b-Ala-2BXy)-b-HPMA]-Pg [Compound 78]”, the “Turbidity, pH 7.4” value ([1]; Table 5, di-block architecture) was 0.041 and the “Size, Rh (nm)” value [2] was 12.9 nm.
For “N3-poly[(HPMA-co-Ma-b-Ala-2BXy)-b-HPMA]-Pg [Compound 62]”, the “Turbidity, pH 7.4” value ([1]; Table 5, di-block architecture) was 0.039 and the “Size, Rh (nm)” value [2] was 6.6 nm.
For “N3-poly(HPMA-co-Ma-b-Ala-2BXy)-Pg [Compound 46]”, the “Turbidity, pH 7.4” value ([1]; Table 5, di-block architecture) was “Aggregate” and the “Size, Rh (nm)” value [2] was over 1000 nm.
For “N3-poly(HPMA-co-Ma-b-Ala-2BXy-co-Ma-b-Ala-COOH)-Pg [Compound 48]”, the “Turbidity, pH 7.4” value ([1]; Table 4, charged monomers, ~10 mol % TLR-7/8a) was 0.043.
